The results in this text go back to patent US20190276541A1 (Seagen, published 2019).

This assay concerns the target T1, CD3 on human T cells (human, UniProt P07766 23-207).
T1 construct: whole, on cells; The native CD3 complex on primary T cells, which were gated with anti-CD2-FITC; also called T cell receptor CD3; CD3 complex
Briefly: flow cytometry on human T cells in PBMCs, anti-Fc Alexa 647 secondary. In general terms: In flow cytometry, cells or beads pass a laser one at a time.

T1 sequence (P07766 23-207): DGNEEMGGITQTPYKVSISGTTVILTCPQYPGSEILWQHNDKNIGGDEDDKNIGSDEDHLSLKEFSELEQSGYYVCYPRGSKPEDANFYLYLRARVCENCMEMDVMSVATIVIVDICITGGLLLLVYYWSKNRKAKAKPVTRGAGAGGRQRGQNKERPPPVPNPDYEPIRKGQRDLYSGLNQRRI
Method: T cells are used to assess binding of antibodies to CD3. For T cell binding assay, PBMCs are isolated from 100 ml of human blood sample using the protocol described previously. […] 50 μl of cells are added to each well of an assay plate. […] Equal volumes of PBMCs and bispecific antibody dilutions are mixed to produce a binding curve. Anti-CD2-FITC (BD Biosciences, San Jose, Calif.) is added to each well to selectively stain T cells. The plate is incubated for 1 hour at 4° C. Cells are washed and pelleted three times with FACS buffer consisting of PBS, 5% FBS and 0.05% sodium azide. […] Cells are washed and pelleted three times again with FACS buffer. Cells are then resuspended in 200 μL FACS buffer and analyzed on a BD ACCURI™ C6 flow cytometer (BD Biosciences, San Jose, Calif.).

B1: 2G12-2B2 having VL0 and VH3 variable domains (antibody, V domains shown)
VH: EVQLVQSGAEVKKPGASVKVSCKASGYTFTDHAIHWVRQAPGQGLEWMGYFSPGNDDIKYNEKFRGRVTMTADKSSSTAYMELRSLRSDDTAVYFCKRSLSTPYWGQGTLVTVSS
VL: DIVMTQSPDSLAVSLGERATINCKSSQSLLNRGNHKNYLTWYQQKPGQPPKLLIYWASTRESGVPDRFSGSGSGTDFTLTISSLQAEDVAVYYCQNDYTYPYTFGQGTKVEIK
notes: also called 2G12-2B2 control; 2G12-2B2 comprising VL0 and VH3
In the case of B1, the binding result was “no binding (tested: 0 to 10 µg per 500,000 cells)”.
